Values of other authors in publication PMC8249329.

Target: ACE2 (Homo sapiens) (UniProt Q9BYF1)
Sequence (Q9BYF1 18-740): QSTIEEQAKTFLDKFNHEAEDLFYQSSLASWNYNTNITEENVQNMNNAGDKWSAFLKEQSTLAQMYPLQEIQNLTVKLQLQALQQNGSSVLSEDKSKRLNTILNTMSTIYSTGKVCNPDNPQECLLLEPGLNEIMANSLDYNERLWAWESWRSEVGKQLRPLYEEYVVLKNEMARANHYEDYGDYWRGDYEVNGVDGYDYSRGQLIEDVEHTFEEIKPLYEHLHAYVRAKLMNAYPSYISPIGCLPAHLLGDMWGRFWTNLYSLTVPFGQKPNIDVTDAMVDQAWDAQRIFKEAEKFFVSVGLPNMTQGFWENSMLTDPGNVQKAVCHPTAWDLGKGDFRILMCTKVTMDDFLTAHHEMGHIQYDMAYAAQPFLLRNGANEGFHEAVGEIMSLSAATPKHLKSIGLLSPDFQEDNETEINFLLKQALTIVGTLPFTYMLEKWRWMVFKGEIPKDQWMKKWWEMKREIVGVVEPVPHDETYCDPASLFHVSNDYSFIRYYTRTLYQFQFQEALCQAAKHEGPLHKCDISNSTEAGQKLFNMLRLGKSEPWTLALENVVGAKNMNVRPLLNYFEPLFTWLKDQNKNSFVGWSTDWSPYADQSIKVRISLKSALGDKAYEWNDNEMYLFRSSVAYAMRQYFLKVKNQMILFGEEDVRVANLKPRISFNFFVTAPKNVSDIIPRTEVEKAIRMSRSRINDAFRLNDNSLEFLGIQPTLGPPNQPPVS

Sequence of HCoV-NL63 spike RBD (Q6Q1S2 481-616): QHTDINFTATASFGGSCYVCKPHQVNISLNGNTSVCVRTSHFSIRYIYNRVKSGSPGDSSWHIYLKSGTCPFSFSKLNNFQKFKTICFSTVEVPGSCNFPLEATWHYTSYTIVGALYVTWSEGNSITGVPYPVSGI

HCoV-NL63 spike RBD (from UniProt Q6Q1S2)
Kd: 35 nM
